Tests used:
RNF8 [1] = biological target: RNF8 (UniProt O76064); assay: biotin-peptide pull-down, Western blot
MDC1 = MDC1 (UniProt Q14676); assay: biotin-peptide pull-down, Western blot; settings: reference: unphosphorylated S139 peptide; sites S139
[2] = biological target: Pellino 2 (PELI2) FHA domain, 1-275 (UniProt Q9HAT8); assay: biotin-peptide pull-down, stained gel
Pellino 1 (PELI1) = Pellino 1 (PELI1) (UniProt Q96FA3); assay: biotin-peptide pull-down, LC-MS/MS; settings: reference: unphosphorylated T752 peptide; sites T752
Pellino 2 (PELI2) = Pellino 2 (PELI2) (UniProt Q9HAT8); assay: biotin-peptide pull-down, LC-MS/MS; settings: reference: unphosphorylated T752 peptide; sites T752
RNF8 [3] = biological target: RNF8 (UniProt O76064); assay: biotin-peptide pull-down, LC-MS/MS; settings: reference: unphosphorylated T752 peptide; sites T752
[4] = reference: unphosphorylated T752 peptide, sites T752
[5] = reference: unphosphorylated T719 peptide, sites T719

MDC1 (from UniProt Q14676) pT699 peptide
binding against the reference (RNF8 [1]; reference: unphosphorylated T699 peptide, sites T699): stronger

H2AX (from UniProt P16104) pS139 peptide
binding against the reference (MDC1): stronger

MDC1 743-757 (from UniProt Q14676) pT752 peptide
binding against the reference (RNF8 [1]; [4]): stronger
binding against the reference [2, 4]: gained
binding against the reference (Pellino 1 (PELI1)): gained
binding against the reference (Pellino 2 (PELI2)): gained
binding against the reference (RNF8 [3]): gained

MDC1 (from UniProt Q14676) pT719 peptide
binding against the reference (RNF8 [1]; [5]): stronger
binding against the reference [2, 5]: gained

MDC1 (from UniProt Q14676) pT765 peptide
binding against the reference (RNF8 [1]; reference: unphosphorylated T765 peptide, sites T765): stronger

Reference: publication PMC11884936, “MDC1 mediates Pellino recruitment to sites of DNA double-strand breaks” (Life Science Alliance, 2025)
